B1: Speckle-type POZ protein (Homo sapiens), O43791 (parent)
chain: MSRVPSPPPPAEMSSGPVAESWCYTQIKVVKFSYMWTINNFSFCREEMGEVIKSSTFSSGANDKLKWCLRVNPKGLDEESKDYLSLYLLLVSCPKSEVRAKFKFSILNAKGEETKAMESQRAYRFVQGKDWGFKKFIRRDFLLDEANGLLPDDKLTLFCEVSVVQDSVNISGQNTMNMVKVPECRLADELGGLWENSRFTDCCLCVAGQEFQAHKAILAARSPVFSAMFEHEMEESKKNRVEINDVEPEVFKEMMCFIYTGKAPNLDKMADDLLAAADKYALERLKVMCEDALCSNLSVENAAEILILADLHSADQLKTQAVDFINYHASDVLETSGWKSMVVSHPHLVAEAYRSLASAQCPFLGPPRKRLKQS
partner: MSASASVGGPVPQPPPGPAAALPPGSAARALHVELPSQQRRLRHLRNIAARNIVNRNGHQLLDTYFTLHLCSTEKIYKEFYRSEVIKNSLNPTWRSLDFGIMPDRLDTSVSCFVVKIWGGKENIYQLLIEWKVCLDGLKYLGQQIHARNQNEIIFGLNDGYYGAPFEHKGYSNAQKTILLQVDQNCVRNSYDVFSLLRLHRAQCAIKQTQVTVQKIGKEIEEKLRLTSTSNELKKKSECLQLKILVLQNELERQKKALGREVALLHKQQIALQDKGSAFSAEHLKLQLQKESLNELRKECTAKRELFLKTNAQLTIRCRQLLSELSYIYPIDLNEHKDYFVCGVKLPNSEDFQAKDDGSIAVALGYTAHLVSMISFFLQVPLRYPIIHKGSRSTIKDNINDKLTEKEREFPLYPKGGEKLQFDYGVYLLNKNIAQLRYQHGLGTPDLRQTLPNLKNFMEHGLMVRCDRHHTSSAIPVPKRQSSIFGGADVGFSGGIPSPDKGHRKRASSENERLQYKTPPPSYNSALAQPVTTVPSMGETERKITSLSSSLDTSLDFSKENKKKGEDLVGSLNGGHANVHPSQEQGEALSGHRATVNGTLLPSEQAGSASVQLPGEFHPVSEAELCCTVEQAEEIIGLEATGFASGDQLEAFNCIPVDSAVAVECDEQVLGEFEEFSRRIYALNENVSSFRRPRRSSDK
B2: Speckle-type POZ protein (Homo sapiens), O43791 (parent)
chain: B1 chain
partner: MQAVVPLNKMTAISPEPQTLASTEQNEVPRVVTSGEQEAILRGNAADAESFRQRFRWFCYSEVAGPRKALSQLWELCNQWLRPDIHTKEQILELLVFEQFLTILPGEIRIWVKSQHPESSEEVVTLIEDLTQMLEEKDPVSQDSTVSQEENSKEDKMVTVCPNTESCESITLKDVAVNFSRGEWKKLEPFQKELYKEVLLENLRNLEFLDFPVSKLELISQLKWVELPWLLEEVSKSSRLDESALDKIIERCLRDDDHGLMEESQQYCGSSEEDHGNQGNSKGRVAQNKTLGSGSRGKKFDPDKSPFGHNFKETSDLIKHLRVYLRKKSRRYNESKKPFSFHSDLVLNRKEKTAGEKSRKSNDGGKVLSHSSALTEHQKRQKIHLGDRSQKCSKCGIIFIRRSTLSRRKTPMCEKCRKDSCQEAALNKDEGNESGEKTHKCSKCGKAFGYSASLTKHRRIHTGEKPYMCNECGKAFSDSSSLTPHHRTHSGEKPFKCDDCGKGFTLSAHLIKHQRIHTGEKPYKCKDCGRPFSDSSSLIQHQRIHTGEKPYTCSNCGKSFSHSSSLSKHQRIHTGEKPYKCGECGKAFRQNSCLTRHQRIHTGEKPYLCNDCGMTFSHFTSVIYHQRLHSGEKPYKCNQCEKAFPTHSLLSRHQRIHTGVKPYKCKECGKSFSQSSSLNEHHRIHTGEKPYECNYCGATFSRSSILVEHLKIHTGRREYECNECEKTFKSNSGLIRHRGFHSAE
B3: Speckle-type POZ protein (Homo sapiens), O43791 (parent)
chain: B1 chain
partner: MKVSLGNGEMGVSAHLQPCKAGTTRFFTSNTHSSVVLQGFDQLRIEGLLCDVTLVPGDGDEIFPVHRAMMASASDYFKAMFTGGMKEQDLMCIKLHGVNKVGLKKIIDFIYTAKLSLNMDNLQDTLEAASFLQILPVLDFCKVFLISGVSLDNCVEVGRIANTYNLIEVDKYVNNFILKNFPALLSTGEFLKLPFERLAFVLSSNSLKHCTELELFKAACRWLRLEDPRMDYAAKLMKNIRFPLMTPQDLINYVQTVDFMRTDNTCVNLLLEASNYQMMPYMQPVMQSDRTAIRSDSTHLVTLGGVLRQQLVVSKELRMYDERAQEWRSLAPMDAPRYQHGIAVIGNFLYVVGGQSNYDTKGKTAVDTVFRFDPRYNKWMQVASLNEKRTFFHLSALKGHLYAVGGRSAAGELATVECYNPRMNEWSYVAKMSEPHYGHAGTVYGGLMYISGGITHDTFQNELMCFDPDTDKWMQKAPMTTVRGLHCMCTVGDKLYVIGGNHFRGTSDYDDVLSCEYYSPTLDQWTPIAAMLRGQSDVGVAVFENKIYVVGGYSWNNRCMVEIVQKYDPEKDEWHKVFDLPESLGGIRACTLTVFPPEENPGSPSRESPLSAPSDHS
B4: Speckle-type POZ protein (Homo sapiens), O43791 (parent)
chain: B1 chain
partner: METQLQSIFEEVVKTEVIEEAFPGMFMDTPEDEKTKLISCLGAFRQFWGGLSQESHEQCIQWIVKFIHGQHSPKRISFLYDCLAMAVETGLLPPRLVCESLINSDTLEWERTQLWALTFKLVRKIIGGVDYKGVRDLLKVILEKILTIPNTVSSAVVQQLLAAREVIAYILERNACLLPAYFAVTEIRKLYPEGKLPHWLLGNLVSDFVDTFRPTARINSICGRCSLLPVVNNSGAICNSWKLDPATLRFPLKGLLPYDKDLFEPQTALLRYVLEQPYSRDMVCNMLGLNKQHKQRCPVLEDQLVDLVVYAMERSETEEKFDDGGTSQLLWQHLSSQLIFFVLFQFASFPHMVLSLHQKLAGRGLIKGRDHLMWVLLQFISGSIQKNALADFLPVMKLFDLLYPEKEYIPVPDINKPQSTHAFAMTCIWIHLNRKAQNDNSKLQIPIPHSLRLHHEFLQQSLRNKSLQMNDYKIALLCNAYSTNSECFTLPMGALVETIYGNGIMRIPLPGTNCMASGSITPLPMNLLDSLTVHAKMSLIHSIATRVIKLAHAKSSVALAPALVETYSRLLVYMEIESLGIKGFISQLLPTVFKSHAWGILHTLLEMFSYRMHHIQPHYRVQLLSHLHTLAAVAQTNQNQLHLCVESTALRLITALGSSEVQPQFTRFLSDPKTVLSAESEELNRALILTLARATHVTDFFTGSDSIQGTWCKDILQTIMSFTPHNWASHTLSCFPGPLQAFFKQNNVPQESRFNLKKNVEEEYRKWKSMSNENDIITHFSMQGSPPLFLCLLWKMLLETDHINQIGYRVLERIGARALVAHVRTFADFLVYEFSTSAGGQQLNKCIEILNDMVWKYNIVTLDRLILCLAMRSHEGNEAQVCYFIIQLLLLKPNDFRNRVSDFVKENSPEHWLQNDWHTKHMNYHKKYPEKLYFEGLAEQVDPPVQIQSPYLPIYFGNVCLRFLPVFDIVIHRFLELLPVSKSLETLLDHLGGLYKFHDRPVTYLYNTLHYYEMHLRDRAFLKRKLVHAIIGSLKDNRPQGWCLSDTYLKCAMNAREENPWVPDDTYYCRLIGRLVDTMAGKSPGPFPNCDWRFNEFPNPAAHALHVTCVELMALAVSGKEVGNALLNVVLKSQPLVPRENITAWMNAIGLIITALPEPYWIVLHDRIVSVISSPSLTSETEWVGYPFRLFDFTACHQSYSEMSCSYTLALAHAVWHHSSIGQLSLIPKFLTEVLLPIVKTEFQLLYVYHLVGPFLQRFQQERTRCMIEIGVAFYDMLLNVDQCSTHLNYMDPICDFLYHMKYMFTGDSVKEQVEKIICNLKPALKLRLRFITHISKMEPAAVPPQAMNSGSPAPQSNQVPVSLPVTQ
B5: Speckle-type POZ protein (Homo sapiens), O43791 (parent)
chain: B1 chain
partner: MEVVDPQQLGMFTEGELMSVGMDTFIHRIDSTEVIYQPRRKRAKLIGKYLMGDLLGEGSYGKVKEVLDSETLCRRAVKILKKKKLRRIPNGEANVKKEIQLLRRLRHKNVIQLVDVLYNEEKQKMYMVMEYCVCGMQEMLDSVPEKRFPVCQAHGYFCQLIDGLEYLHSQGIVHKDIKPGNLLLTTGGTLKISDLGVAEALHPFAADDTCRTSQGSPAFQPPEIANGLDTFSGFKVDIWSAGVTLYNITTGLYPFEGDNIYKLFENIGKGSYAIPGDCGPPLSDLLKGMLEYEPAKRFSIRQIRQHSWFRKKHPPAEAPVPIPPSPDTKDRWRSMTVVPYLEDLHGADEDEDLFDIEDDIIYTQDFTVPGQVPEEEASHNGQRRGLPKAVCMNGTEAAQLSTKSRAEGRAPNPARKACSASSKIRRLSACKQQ

Variants of: B1
Conditions: with uvrag_human UVRAG

Variant	effect of a mutation on the interaction
F133V	with no effect

Variants of: B1
Conditions: with uvrag_human UVRAG
Remark: another data set of the same source

Variant	effect of a mutation on the interaction
F133L	with no effect

Variants of: B1
Conditions: with uvrag_human UVRAG
Remark: another data set of the same source

Variant	effect of a mutation on the interaction
F102C	with no effect

Variants of: B2
Conditions: with zn483_human ZNF483, Q8TF39

Variant	effect of a mutation on the interaction
Y87C	with no effect

Variants of: B3
Conditions: with klhl9_human KLHL9, Q9P2J3

Variant	effect of a mutation on the interaction
F133L	with no effect

Variants of: B3
Conditions: with klhl9_human KLHL9, Q9P2J3
Remark: another data set of the same source

Variant	effect of a mutation on the interaction
Y87C	with no effect

Variants of: B4
Conditions: with med23_human MED23, Q9ULK4

Variant	effect of a mutation on the interaction
F133V	with no effect

Variants of: B4
Conditions: with med23_human MED23, Q9ULK4
Remark: another data set of the same source

Variant	effect of a mutation on the interaction
F133L	with no effect

Variants of: B5
Conditions: with stk11_human STK11, Q15831

Variant	effect of a mutation on the interaction
F133V	with no effect

Variants of: B5
Conditions: with stk11_human STK11, Q15831
Remark: another data set of the same source

Variant	effect of a mutation on the interaction
F133L	with no effect

Variants of: B5
Conditions: with stk11_human STK11, Q15831
Remark: another data set of the same source

Variant	effect of a mutation on the interaction
Y87C	with no effect
